In PMC10798645:

Key:
[1] = molecular target: SARS-CoV-2 Omicron (BA.1) Spike (pCAGGS-SARS-CoV-2 BA.1 Spike) (UniProt P0DTC2); conditions: parent: est. 1.0; read off a plot
[2] = molecular target: SARS-CoV-2 Wuhan-1 Spike (S), C-terminal 6xHis (pcDNA5) (UniProt P0DTC2); conditions: parent: est. 1.0; read off a plot

For “HA-tagged full-length BST2 (pcDNA5) (from UniProt Q10589) EC2Ala”, the ratio to parent [1] was 1 and the ratio to parent [2] was 0.74.
